Experimental data reported in patent US20170298375, “CONTROL OF CELLULOSE BIOSYNTHESIS BY OVEREXPRESSION OF A TRANSCRIPTION FACTOR” (Board of Trustees of Michigan State University, published 2017).

Key:
GST-MYB46 [1] = target: T1, GST-MYB46 (Arabidopsis thaliana, UniProt Q9LXV2 SEQ:1-280); test: EMSA; labelled fragment stated as -248 to -69 in text; 5 mM MgCl2, 50 mM KCl, pH 7.5; conditions: tags: GST fusion, E. coli Rosetta gami; label: 32P
Protocol: (§1) A GST-MYB46 fusion protein was first incubated with the wild type, double-stranded ³²P-labeled oligodeoxynucleotides with the wild type CESA4, CESA7 and CESA8 promoter sequences shown in FIG. 3A. The GST protein was used as control protein. Unlabeled competitor promoter oligonucleotides were then added the assays to generate the assay mixtures identified FIG. 3B, where the competitors were oligonucleotides with wild type and mutated CESA4, CESA7 and CESA8 promoter sequences shown in FIG. 3A. […] To generate the results shown FIG. 3B, each assay mixture was then subjected to an electrophoretic mobility shift assay (EMSA) by polyacrylamide gel electrophoresis (PAGE). […] The promoter regions used for the DNA probes in each experiment are indicated below the gel images. Competition for the protein-DNA binding was performed using 60× unlabeled probes. The free unbound DNA probes are indicated by the arrow.
(§2) DNA fragments for EMSA were obtained by PCR-amplification and labeled with [γ-³²P]ATP using T4 polynucleotide kinase (NEB). The end-labeled probes were purified with Microspin S-200 HR column (GE Healthcare). The labeled DNA fragments were incubated for 25 min with 50 ng of GST-MYB46 in a binding buffer [10 mM. Tris (pH 7.5), 50 mM KCl, 1 mM DTT, 2.5% glycerol, 5 mM MgCl₂, 100 μg/ml BSA, and 50 ng/μL poly(dI-dC)].

GST = GST (UniProt P08515 P08515:1-218); test: EMSA; GST alone control; conditions: tags: GST alone control; label: 32P
Chain of GST (P08515 whole entry, one chain of several): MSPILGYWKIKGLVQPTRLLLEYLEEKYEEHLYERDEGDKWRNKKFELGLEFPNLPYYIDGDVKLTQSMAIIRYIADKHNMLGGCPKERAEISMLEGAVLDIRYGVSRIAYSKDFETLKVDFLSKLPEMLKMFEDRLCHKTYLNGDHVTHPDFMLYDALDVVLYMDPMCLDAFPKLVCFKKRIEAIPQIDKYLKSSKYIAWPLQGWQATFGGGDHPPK
Protocol: as §1, §2

GST-MYB46 [2] = target: T1, GST-MYB46; test: EMSA; labelled fragment stated as -662 to -486 in text; conditions: tags: GST fusion, E. coli Rosetta gami; label: 32P
Protocol: as §1, §2

GST-MYB46 [3] = target: T1, GST-MYB46; test: EMSA; labelled fragment stated as -525 to -358 in text; conditions: tags: GST fusion, E. coli Rosetta gami; label: 32P
Protocol: as §1, §2

T1 sequence (Q9LXV2 whole entry, the tested form may be a part): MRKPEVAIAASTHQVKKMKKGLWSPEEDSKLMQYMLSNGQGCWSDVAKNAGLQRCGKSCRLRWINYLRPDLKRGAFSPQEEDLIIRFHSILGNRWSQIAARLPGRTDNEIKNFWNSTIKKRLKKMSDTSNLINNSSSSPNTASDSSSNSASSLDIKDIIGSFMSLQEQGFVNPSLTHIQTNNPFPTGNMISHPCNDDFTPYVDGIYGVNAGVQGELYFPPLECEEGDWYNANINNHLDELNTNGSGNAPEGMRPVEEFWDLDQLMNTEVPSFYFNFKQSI

B1: ProCesA4wt (dsDNA)
DNA 1: TCACTCACAGTTTGGTACAACCTCA
DNA 2: TGAGGTTGTACCAAACTGTGAGTGA
**Q.** Which results are given for B1?
**A.** binding result (GST-MYB46 [1]): binds; binding result (GST): no binding

B2: ProCesA7wt (dsDNA)
DNA 1: CAGAAAATTCACCTAATTAAGGACA
DNA 2: TGTCCTTAATTAGGTGAATTTTCTG
**Q.** Does B2 bind (GST)?
**A.** no binding

**Q.** Does B2 bind (GST-MYB46 [2])?
**A.** binds

B3: ProCesA8wt (dsDNA)
DNA 1: CTTATAGAAAGTTGGTGATTGAAAA
DNA 2: TTTTCAATCACCAACTTTCTATAAG
**Q.** What does the source list for B3?
**A.** binding result (GST-MYB46 [3]): binds; binding result (GST): no binding
